B1: 466F6 VHv2VLv5 (antibody, human IgG1, kappa, V domains shown)
VH: RSLVESGGGLVQPGGSLRLSCTASGFTISSYHMQWVRQAPGKGLEYIGTISSGGNVYYASSARGRFTISRPSSKNTVDLQMNSLRAEDTAVYYCARDSGYSDPMWGQGTLVTVSS
VL: DVVMTQSPSSVSASVGDRVTITCQASQNIRTYLSWYQQKPGKAPKLLIYAAANLASGVPSRFSGSGSGTDFTLTISDLEPGDAATYYCQSTYLGTDYVGGAFGGGTKVEIKR
notes: one of the humanized antibodies; also called 466F6 humanized
B2: 416F8 VHv3VLv1 (antibody, human IgG1, kappa, V domains shown)
VH: QSLVESGGGLVQPGGSLRLSCAASGFSLSNYYMNWVRQAPGKGLEYIGIISSSGSAYYASSAKGRFTISRDNSKNTLYLQMNSLRAEDTAVYYCARGDYGMDLWGQGTLVTVSS
VL: DIQMTQSPSSLSASVGDRVTITCQSSQTVYNNNLLSWYQQKPGKVPKLLIYYASTLAFGVPSRFSGSGSGTDFTLTISSLQPEDVATYYCQGGYSGWIYVFGGGTKVEIKR
notes: one of the humanized antibodies; also called 416F8 humanized
B3: 464C11 VHv1VLv1 (antibody, human IgG1, kappa, V domains shown)
VH: EVQLVESGGGLVQPGPSLRLSCTASGFSLSHYWMTWVRQAPGKGLEYIGFINVGGDTSYASSVKGRFTISRDDSKSIAYLQMNSLKTEDTAVYYCGRGGLTFGWDLWGQGTLVTVSS
VL: DIQMTQSPSTLSASVGDRVTITCQSSQSVYSNSFLSWYQQKPGKAPKLLIYSASDLASGVPSRFSGSGSGTEFTLTISSLQPDDFATYYCAGVYSDNTYVFGGGTKVEIKR
notes: one of the humanized antibodies; also called 464C11 humanized
B4: 418E10 VHv1VLv1 (antibody, human IgG1, kappa, V domains shown)
VH: EVQLVESGGGLVQPGGSLRLSCAASGFSLSTYYMSWVRQAPGKGLEWIGSIYDSGAAYYATSAKGRFTISRDNSKNTLYLQMNSLRAEDTAVYYCARDPINNAIWGQGTLVTVSS
VL: DIQMTQSPSTLSASVGDRVTITCQASQSIGSNLNWYQQKPGKAPKLLIYYVSTLASGVPSRFSGSGSGTEFTLTISSLQPDDFATYYCLGVWNYWGDDGTAFGGGTKVEIKR
notes: one of the humanized antibodies; also called 418E10 humanized
B5: 418E4 VHv1VLv1 (antibody, human IgG1, kappa, V domains shown)
VH: EVQLVESGGGLVQPGGSLRLSCAASGFSLSSYYMSWVRQAPGKGLEWIGSIYASGSAYYASSAKGRFTISRDNSKNTLYLQMNSLRAEDTAVYYCARDPINNDIWGQGTLVTVSS
VL: DIQMTQSPSTLSASVGDRVTITCQASQSIATNLNWYQQKPGKAPKLLIYYTSSLASGVPSRFSGSGSGTEFTLTISSLQPDDFATYYCLGVWNYWGDDGTAFGGGTKVEIKR
notes: one of the humanized antibodies; also called 418E4 humanized
B6: 413F3 VHv1VLv1 (antibody, human IgG1, kappa, V domains shown)
VH: EVQLVESGGGLVQPGGSLRLSCAASGIDFSSNYMCWVRQAPGKGLEWIACIYGDSSDNSYSASSAKGRFTISRDNSKNTLYLQMNSLRAEDTAVYYCARSGYSYLGYFNLWGQGTLVTVSS
VL: DIQMTQSPSSLSASVGDRVTITCQASQSIYSNLAWYQQKPGKVPKLLIYSTSTLASGVPSRFSGSGSGTDFTLTISSLQPEDVATYYCQNYYGSSTDSYGNPFGGGTKVEIKR
notes: one of the humanized antibodies; also called 413F3 humanized
B7: 419D9 VHv3VLv3 (antibody, human IgG1, kappa, V domains shown)
VH: EVQLLESGGGLVQPGGSLRLSCTASGFSFSSRHYMCWVRQAPGKGLEWIACIYTGSSGTPHYASSAKGRFTISQDNSKNTVTLQMNSLRAEDTAVYYCAREGNLWGQGTLVTVSS
VL: DIQMTQSPSTLSASVGDRVTITCQSSQSVYSNWLSWYQQKPGKAPKRLIYSASTLASGVPSRFSGSGSGTEFTLTISSLQPDDFATYYCAGGYNTVTDTFAFGGGTKVEIKR
notes: one of the humanized antibodies; also called 419D9 humanized
B8: 460C3 VHv1VLv1 (antibody, human IgG1, kappa, V domains shown)
VH: EVQLLESGGGLVQPGGSLRLSCAASGIDFSRRYYMCWVRQAPGKGLEWIACIYTGSRDTPHYASSAKGRFTISRDNSKNTLYLQMNSLRAEDTAVYYCAREGSLWGQGTLVTVSS
VL: DIQMTQSPSTLSASVGDRVTITCQSSQSVYSNWFSWYQQKPGKAPKLLIYSASTLASGVPSRFSGSGSGTEFTLTISSLQPDDFATYYCAGGYNTVIDTFAFGGGTKVEIKR
notes: one of the humanized antibodies; also called 460C3 humanized
B9: 420H6 VHv1VLv1 (antibody, human IgG1, kappa, V domains shown)
VH: EVQLLESGGGLVQPGGSLRLSCAASGIDFSSSYYMCWVRQAPGKGLEWIACIYTGGSGTPHYASSAKGRFTISRDNSKNTLYLQMNSLRAEDTAVYYCAREGSLWGQGTLVTVSS
VL: DIQMTQSPSTLSASVGDRVTITCQASQSVYSNWLSWYQQKPGKAPKLLIYSASTLASGVPSRFSGSGSGTEFTLTISSLQPDDFATYYCAGGYNTVIDTFAFGGGTKVEIKR
notes: one of the humanized antibodies; also called 420H6 humanized
B10: 459F1 VHv1VLv1 (antibody, human IgG1, kappa, V domains shown)
VH: EVQLLESGGGLVQPGGSLRLSCAASGIDFSRRYYMCWVRQAPGKGLEWIACMYTGSRDTPHYASSAKGRFTISRDNSKNTLYLQMNSLRAEDTAVYYCAREGNLWGQGTLVTVSS
VL: DIQMTQSPSTLSASVGDRVTITCQSSQSVYSNWFSWYQQKPGKAPKLLIYSASTLASGVPSRFSGSGSGTEFTLTISSLQPDDFATYYCAGGYNTVTDTFAFGGGTKVEIKR
notes: one of the humanized antibodies; also called 459F1 humanized
B11: 418H5 VHv2VLv1 (antibody, human IgG1, kappa, V domains shown)
VH: EVQLVESGGGLVQPGGSLRLSCTASGIDLSAYHMSWVRQAPGKGLEYIGMIGSSGTIHYANSAKGRFTISKDNTKNTVDLQMNSLRAEDTAVYYCARDSYNSDYAFNLWGQGTLVTVSS
VL: DIQMTQSPSSVSASVGDRVTITCQSSPSVYKNNQLAWYQQKPGKAPKLLIYLASTLASGVPSRFSGSGSGTDFTLTISSLQPEDFATYYCAGGYSSSSDTAFGGGTKVEIKR
notes: one of the humanized antibodies; also called 418H5 humanized
B12: 411H11 VHv1VLv1 (antibody, human IgG1, kappa, V domains shown)
VH: EVQLVESGGGLVQPGGSLRLSCAASGFTISSHHMIWVRQAPGKGLQYIGFINDGDYTYYTNSAKGRFTISRDNSKNTLYLQMNSLRAEDTAVYYCARGVDGTSYPGLWGQGTLVTVSS
VL: DVVMTQSPSSVSASVGDRVTITCQASQSIGADLAWYQQKPGKAPKLLIYRASTLASGVPSRFSGSGSGTDFTLTISSLQPEDFATYYCQAIYYGTDDVIYHTFGGGTKVEIKR
notes: one of the humanized antibodies; also called 411H11 humanized
B13: 416G1 VHv1VLv1 (antibody, human IgG1, kappa, V domains shown)
VH: EVQLVESGGGLVQPGGSLRLSCAASGFTINSYHMIWVRQAPGKGLEYIGFINDGGFTYYASSAKGRFTISRDNSKNTLYLQMNSLRAEDTAVYYCARGVDGTSYPDLWGQGTLVTVSS
VL: DVVMTQSPSSVSASVGDRVTITCQASQSIGSDLAWYQQKPGKAPKLLIYRASTLASGVPSRFSGSGSGTDFTLTISSLQPEDFATYYCQSIYYGSDDVIYHTFGGGTKVEIKR
notes: one of the humanized antibodies; also called 416G1 humanized
B14: 420H5 VHv3VLv3 (antibody, human IgG1, kappa, V domains shown)
VH: QSLVESGGGLVQPGGSLRLSCAASGFSFSSNYWICWVRQAPGKGLEWIACIYVGSSGDTYYASSAKGRFTISRDNSKNTLYLQMNSLRAEDTAVYYCARDSSSYYMFNLWGQGTLVTVSS
VL: ALVMTQSPSTLSASVGDRVTINCQASEDIDTYLAWYQQKPGKAPKLLIFYASDLASGVPSRFSGSGSGTEFTLTISSLQPDDFATYYCQGGYYTSSADTRGAFGGGTKVEIKR
notes: one of the humanized antibodies; also called 420H5 humanized
B15: 470C6 VHv3VLv3 (antibody, human IgG1, kappa, V domains shown)
VH: QSLVESGGGLVQPGGSLRLSCAASGFSFTSSYYMCWVRQAPGKGLEWIACIYTGSSGSTYYANSAKGRFTISRDNSKNTLYLQMNSLRAEDTAVYYCARDSSSYYMFNLWGQGTLVTVSS
VL: ALVMTQSPSTLSASVGDRVTINCQASEDIDNYLAWYQQKPGKAPKLLIFYASDLASGVPSRFSGSGSGTEFTLTISSLQPDDFATYYCQGGYYTSSTDTRGAFGGGTKVEIKR
notes: one of the humanized antibodies; also called 470C6 humanized
B16: 472E4 VHv1VLv1 (antibody, human IgG1, kappa, V domains shown)
VH: EVQLVESGGGLVQPGGSLRLSCAASGFSLNNNAISWVRQAPGKGLEWVAIIQNTGTTDYARSAKGRFTISRDNSKNTLYLQMNSLRAEDTAVYYCARGYGFESELVIWGQGTLVTVSS
VL: DIQMTQSPSSLSASVGDRVTITCQSSQSVYNNNALAWYQQKPGKVPKLLIYLASTLASGVPSRFSGSGSGTDFTLTISSLQPEDVATYYCLGVYNDDVDNGFGGGTKVEIKR
notes: one of the humanized antibodies; also called 472E4 humanized

Target: T1, recombinant human 4-1BB extracellular domain protein (human, UniProt Q07011 24-186)
T1 construct: extracellular domain; Analyte in the Octet assay; also called CD137; TNFRSF9
Experiment: Octet, binding off-rate kdis; the sheet names no species of 41BB, paragraph 86: 'binding to human and recombinant 4-1BB by octet assay'

Binder	koff
B1	0.00254 s⁻¹
B2	0.00645 s⁻¹
B3	0.000784 s⁻¹
B4	0.000958 s⁻¹
B5	0.00277 s⁻¹
B6	0.00224 s⁻¹
B7	0.00284 s⁻¹
B8	0.000728 s⁻¹
B9	0.00128 s⁻¹
B10	0.00131 s⁻¹
B11	0.00245 s⁻¹
B12	0.00179 s⁻¹
B13	0.00166 s⁻¹
B14	0.00178 s⁻¹
B15	0.00183 s⁻¹
B16	0.00265 s⁻¹

Source: US20210188989A1 (SYSTIMMUNE, published 2021)
